{
  "source": "the RNAGym collection of RNA variant scans (doi:10.1021/acssynbio.7b00057)",
  "parents": {"B1": {"name": "Pistol ribozyme (parent)", "chain": "GGGUCGUUGUUCCAUAAUCGCGUGGAUAUGGCACGCAAGUUUCUACCGGGCACCGUAAAUGUCCGACUGGAGCCGUUCGGGCGGCUAUAAACAGACCUCAGGCCCGAAGCGUGGCGGCACCUGCCGCCGGUGGUAAAAAAGAUCGGAAGAGCACACGUCU"}},
  "data": [
    {"variants_of": "B1", "assay": "aptazyme ON/OFF ratio, guanine; higher = stronger switching; co-transcriptional cleavage with and without guanine", "values": [
      {"variant": "GGGUCGUAGAUCGAUAAUCGCGUGGAUAUGGCACGCAAGUUUCUACCGGGCACCGUAAAUGUCCGACUGGAGCCGUUCGGGCGGCUAUAAACAGACCUCAGGCCCGAAGCGUGGCGGCACCUGCCGCCGGUGGUAAAAAAGAUCGGAAGAGCACACGUCU", "aptazyme ON/OFF ratio": 1.06},
      {"variant": "GGGUCGUAGAUCAAUAAUCGCGUGGAUAUGGCACGCAAGUUUCUACCGGGCACCGUAAAUGUCCGACUGGAGCCGUUCGGGCGGCUAUAAACAGACCUCAGGCCCGAAGCGUGGCGGCACCUGCCGCCGGUGGUAAAAAAGAUCGGAAGAGCACACGUCU", "aptazyme ON/OFF ratio": 1.05},
      {"variant": "GGGUCGUAGAUCUAUAAUCGCGUGGAUAUGGCACGCAAGUUUCUACCGGGCACCGUAAAUGUCCGACUGGAGCCGUUCGGGCGGCUAUAAACAGACCUCAGGCCCGAAGCGUGGCGGCACCUGCCGCCGGUGGUAAAAAAGAUCGGAAGAGCACACGUCU", "aptazyme ON/OFF ratio": 1.03},
      {"variant": "GGGUCGUAGAAAUAUAAUCGCGUGGAUAUGGCACGCAAGUUUCUACCGGGCACCGUAAAUGUCCGACUGGAGCCGUUCGGGCGGCUAUAAACAGACCUCAGGCCCGAAGCGUGGCGGCACCUGCCGCCGGUGGUAAAAAAGAUCGGAAGAGCACACGUCU", "aptazyme ON/OFF ratio": 1.11},
      {"variant": "GGGUCGUAGAAAGAUAAUCGCGUGGAUAUGGCACGCAAGUUUCUACCGGGCACCGUAAAUGUCCGACUGGAGCCGUUCGGGCGGCUAUAAACAGACCUCAGGCCCGAAGCGUGGCGGCACCUGCCGCCGGUGGUAAAAAAGAUCGGAAGAGCACACGUCU", "aptazyme ON/OFF ratio": 1.04},
      {"variant": "GGGUCGUAGAAAAAUAAUCGCGUGGAUAUGGCACGCAAGUUUCUACCGGGCACCGUAAAUGUCCGACUGGAGCCGUUCGGGCGGCUAUAAACAGACCUCAGGCCCGAAGCGUGGCGGCACCUGCCGCCGGUGGUAAAAAAGAUCGGAAGAGCACACGUCU", "aptazyme ON/OFF ratio": 1.21},
      {"variant": "GGGUCGUAGAUUCAUAAUCGCGUGGAUAUGGCACGCAAGUUUCUACCGGGCACCGUAAAUGUCCGACUGGAGCCGUUCGGGCGGCUAUAAACAGACCUCAGGCCCGAAGCGUGGCGGCACCUGCCGCCGGUGGUAAAAAAGAUCGGAAGAGCACACGUCU", "aptazyme ON/OFF ratio": 1.11},
      {"variant": "GGGUCGUAGAUGCAUAAUCGCGUGGAUAUGGCACGCAAGUUUCUACCGGGCACCGUAAAUGUCCGACUGGAGCCGUUCGGGCGGCUAUAAACAGACCUCAGGCCCGAAGCGUGGCGGCACCUGCCGCCGGUGGUAAAAAAGAUCGGAAGAGCACACGUCU", "aptazyme ON/OFF ratio": 1.16},
      {"variant": "GGGUCGUAGAUACAUAAUCGCGUGGAUAUGGCACGCAAGUUUCUACCGGGCACCGUAAAUGUCCGACUGGAGCCGUUCGGGCGGCUAUAAACAGACCUCAGGCCCGAAGCGUGGCGGCACCUGCCGCCGGUGGUAAAAAAGAUCGGAAGAGCACACGUCU", "aptazyme ON/OFF ratio": 1.11},
      {"variant": "GGGUCGUAGAUCCAUAAUCGCGUGGAUAUGGCACGCAAGUUUCUACCGGGCACCGUAAAUGUCCGACUGGAGCCGUUCGGGCGGCUAUAAACAGACCUCAGGCCCGAAGCGUGGCGGCACCUGCCGCCGGUGGUAAAAAAGAUCGGAAGAGCACACGUCU", "aptazyme ON/OFF ratio": 1.07},
      {"variant": "GGGUCGUAGAACCAUAAUCGCGUGGAUAUGGCACGCAAGUUUCUACCGGGCACCGUAAAUGUCCGACUGGAGCCGUUCGGGCGGCUAUAAACAGACCUCAGGCCCGAAGCGUGGCGGCACCUGCCGCCGGUGGUAAAAAAGAUCGGAAGAGCACACGUCU", "aptazyme ON/OFF ratio": 1.14},
      {"variant": "GGGUCGUAGAUUUAUAAUCGCGUGGAUAUGGCACGCAAGUUUCUACCGGGCACCGUAAAUGUCCGACUGGAGCCGUUCGGGCGGCUAUAAACAGACCUCAGGCCCGAAGCGUGGCGGCACCUGCCGCCGGUGGUAAAAAAGAUCGGAAGAGCACACGUCU", "aptazyme ON/OFF ratio": 1.25},
      {"variant": "GGGUCGUAGAUUAAUAAUCGCGUGGAUAUGGCACGCAAGUUUCUACCGGGCACCGUAAAUGUCCGACUGGAGCCGUUCGGGCGGCUAUAAACAGACCUCAGGCCCGAAGCGUGGCGGCACCUGCCGCCGGUGGUAAAAAAGAUCGGAAGAGCACACGUCU", "aptazyme ON/OFF ratio": 1.21},
      {"variant": "GGGUCGUAGAUUGAUAAUCGCGUGGAUAUGGCACGCAAGUUUCUACCGGGCACCGUAAAUGUCCGACUGGAGCCGUUCGGGCGGCUAUAAACAGACCUCAGGCCCGAAGCGUGGCGGCACCUGCCGCCGGUGGUAAAAAAGAUCGGAAGAGCACACGUCU", "aptazyme ON/OFF ratio": 1.13},
      {"variant": "GGGUCGUAGAAGUAUAAUCGCGUGGAUAUGGCACGCAAGUUUCUACCGGGCACCGUAAAUGUCCGACUGGAGCCGUUCGGGCGGCUAUAAACAGACCUCAGGCCCGAAGCGUGGCGGCACCUGCCGCCGGUGGUAAAAAAGAUCGGAAGAGCACACGUCU", "aptazyme ON/OFF ratio": 1.13},
      {"variant": "GGGUCGUAGAAGGAUAAUCGCGUGGAUAUGGCACGCAAGUUUCUACCGGGCACCGUAAAUGUCCGACUGGAGCCGUUCGGGCGGCUAUAAACAGACCUCAGGCCCGAAGCGUGGCGGCACCUGCCGCCGGUGGUAAAAAAGAUCGGAAGAGCACACGUCU", "aptazyme ON/OFF ratio": 1.18},
      {"variant": "GGGUCGUAGAAGAAUAAUCGCGUGGAUAUGGCACGCAAGUUUCUACCGGGCACCGUAAAUGUCCGACUGGAGCCGUUCGGGCGGCUAUAAACAGACCUCAGGCCCGAAGCGUGGCGGCACCUGCCGCCGGUGGUAAAAAAGAUCGGAAGAGCACACGUCU", "aptazyme ON/OFF ratio": 1.12},
      {"variant": "GGGUCGUAGAUAUAUAAUCGCGUGGAUAUGGCACGCAAGUUUCUACCGGGCACCGUAAAUGUCCGACUGGAGCCGUUCGGGCGGCUAUAAACAGACCUCAGGCCCGAAGCGUGGCGGCACCUGCCGCCGGUGGUAAAAAAGAUCGGAAGAGCACACGUCU", "aptazyme ON/OFF ratio": 1.18}
    ]}
  ]
}
